Reference: US10279017B2 (priority 2014, dated 2019)
Where two headings read alike, the source gives them in different places.

Experiments:
[1] = tested on: HASMCs; details: GM6001 released from PLGA coating compared to metallic substrate only; cited from earlier work
[2] = tested on: human aortic smooth muscle cell (HASMC); details: coating containing GM6001 compared to metallic substrate only, cited from earlier work
[3] = target: T1, MMP2 (Homo sapiens, UniProt P08253); parameters: endogenous in cells; host or cells: human aortic smooth muscle cells (HASMC); details: GM6001 releasing coating vs metal substrate; cited from earlier work
T1 sequence (P08253 110-660): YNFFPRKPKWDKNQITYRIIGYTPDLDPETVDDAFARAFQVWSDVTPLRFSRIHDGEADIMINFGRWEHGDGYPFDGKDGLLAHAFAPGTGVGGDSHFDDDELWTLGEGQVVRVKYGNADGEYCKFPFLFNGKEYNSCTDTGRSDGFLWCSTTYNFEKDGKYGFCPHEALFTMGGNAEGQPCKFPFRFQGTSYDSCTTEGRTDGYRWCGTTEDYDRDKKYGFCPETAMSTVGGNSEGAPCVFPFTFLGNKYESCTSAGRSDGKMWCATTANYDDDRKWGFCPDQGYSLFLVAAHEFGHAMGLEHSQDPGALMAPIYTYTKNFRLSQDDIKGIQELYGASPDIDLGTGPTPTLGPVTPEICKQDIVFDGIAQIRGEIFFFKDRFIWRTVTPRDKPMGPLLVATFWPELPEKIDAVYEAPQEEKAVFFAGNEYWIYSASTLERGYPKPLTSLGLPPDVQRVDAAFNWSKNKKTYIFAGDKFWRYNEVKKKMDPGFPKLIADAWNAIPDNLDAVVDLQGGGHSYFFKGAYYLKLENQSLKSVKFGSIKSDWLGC

[4] = target: T2, pseudolysin (Pseudomonas aeruginosa, UniProt P14756); details: Cathgart G. R. et al, 2011; cited from earlier work
T2 sequence (P14756 198-498): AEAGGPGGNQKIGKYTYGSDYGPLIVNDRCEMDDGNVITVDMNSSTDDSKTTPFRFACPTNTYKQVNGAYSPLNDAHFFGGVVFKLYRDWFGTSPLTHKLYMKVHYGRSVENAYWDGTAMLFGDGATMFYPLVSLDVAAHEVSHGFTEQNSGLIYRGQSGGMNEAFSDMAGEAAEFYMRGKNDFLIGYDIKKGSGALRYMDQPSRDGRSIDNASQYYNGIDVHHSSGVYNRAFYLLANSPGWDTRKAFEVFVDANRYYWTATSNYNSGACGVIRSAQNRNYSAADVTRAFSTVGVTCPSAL

[5] = tested on: P. aeruginosa cultures VB7623; assay: growth curves (OD 600 nm) of clinical isolate; format: cell-based, Pseudomonas aeruginosa
Description: (§1) Gentamycin MIC (minimal inhibitory concentration) values were determined using a standard two fold microtiter broth dilution protocol with Nutrient Broth as medium. Midexponential phase cultures of P. aeruginosa reference strain DSM No.: 50071 and two antibiotic-resistant clinical isolates (P. aeruginosa VB7623 and VB7444), which were isolated from the tracheal secrete of a patient, were tested. Antimicrobial susceptibility testing of the clinical isolates was performed by the University Clinic Tubingen. […] Further, the OD (optical density) at 600 nm in the presence and absence of the insect metalloprotease inhibitor IMPI was investigated. For assessing influences of IMPI on bacterial growth final concentrations of IMPI between 20 and 75 μM were used. Bacterial growth was monitored at 37° C. over 48 h. All MIC values were done as triplicates.

[6] = tested on: P. aeruginosa (DSM No. 50071); assay: Gentamycin MIC determination, microtiter broth dilution; format: cell-based, Pseudomonas aeruginosa; details: reference strain DSM No. 50071, partially resistant to Gentamycin
Description: as §1

[7] = target: T2, pseudolysin; details: cited from earlier work
[8] = tested on: P. aeruginosa (Clinical Isolate VB7623); assay: pyoveridine development and planktonic biofilm in 96-well plate; format: cell-based, Pseudomonas aeruginosa; details: after 48 h
Description: FIG. 9: Comparison of the development of pyoveridine (dark grey background in circular light grey structure, i.e. the plate wells) during growth of P. aeruginosa (Clinical Isolate VB7623 from tracheal secrete, assessed as 4MRGN strain [EUCAST]) in presence (lower rectangle) and absence (upper rectangle) of the M4-metalloprotease inhibitor IMPIα (73 μM; NB-Medium No. 5), and different Gentamycin concentrations (32; 8; 4; 2; 1; 0.5; 0.25; 0.125 μg/ml) in a 96-well plate after 48 h. Pyoveridine is not expressed in the concurrent presence of IMPI and Gentamycin, not even at gentamycin concentrations as low as 0.125 μg/
FIG. 15: Comparison of the development of planctonic biofilm and pyoveridine (grey colour in the wells) during growth of P. aeruginosa (clinical isolate VB7623 from tracheal secrete, assessed as 4MRGN strain [EUCAST]) in the presence (black outlined rectangle) and absence (double outlined rectangle) of the M4-metalloprotease inhibitor IMPI (60 μM; NB-Medium No. 5) in a 96-well plate after 48 h.
as §1

[9] = tested on: bacillolysin; details: cited from earlier work
[10] = target: T1, MMP2; details: cited from earlier work
[11] = target: T3, MMP1 (Homo sapiens, UniProt P03956); details: cited from earlier work
T3 sequence (P03956 100-469): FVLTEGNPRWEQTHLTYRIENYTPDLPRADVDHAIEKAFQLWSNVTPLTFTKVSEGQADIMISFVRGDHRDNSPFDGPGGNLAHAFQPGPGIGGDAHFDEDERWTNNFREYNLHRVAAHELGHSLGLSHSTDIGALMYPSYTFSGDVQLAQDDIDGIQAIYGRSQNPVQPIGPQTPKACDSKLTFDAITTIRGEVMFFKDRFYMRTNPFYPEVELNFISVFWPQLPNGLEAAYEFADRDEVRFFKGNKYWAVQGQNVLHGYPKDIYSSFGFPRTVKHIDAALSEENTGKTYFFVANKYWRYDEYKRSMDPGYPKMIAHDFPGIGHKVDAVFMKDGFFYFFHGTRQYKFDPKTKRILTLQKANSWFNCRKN

[12] = target: thermolysin (Bacillus thermoproteolyticus, UniProt P00800); details: cited from earlier work
Sequence of thermolysin (P00800 233-548): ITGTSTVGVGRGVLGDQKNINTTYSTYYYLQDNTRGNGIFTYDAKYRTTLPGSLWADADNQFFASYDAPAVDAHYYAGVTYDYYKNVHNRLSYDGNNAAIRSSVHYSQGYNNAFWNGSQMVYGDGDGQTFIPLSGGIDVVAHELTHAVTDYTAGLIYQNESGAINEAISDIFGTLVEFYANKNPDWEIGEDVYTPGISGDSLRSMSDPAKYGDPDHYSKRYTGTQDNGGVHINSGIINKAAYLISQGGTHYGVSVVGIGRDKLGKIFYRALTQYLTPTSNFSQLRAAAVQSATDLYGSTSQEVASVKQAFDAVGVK

[13] = tested on: Pseudomonas aeruginosa; assay: formation of freely suspended biofilm in flocs (FIG. 4); format: cell-based; details: incubated with IMPIα at 62.5 and 125 ng/ml Gm doses
Description: FIG. 4: The formation of freely suspended biofilm in flocs is a successful strategy used by Pseudomonas aeruginosa to overcome stressfull envionmental conditions (e.g. addition of Gentamicin Gm to buffer; Panel A (62.5 ng/ml) and B (125 ng/ml)).

[14] = tested on: P. aeruginosa; assay: synthesis of siderophore pyoverdine; format: cell-based, Pseudomonas aeruginosa; details: IMPIα together with the antibiotic gentamycin

CNC(=O)[C@H](Cc1c[nH]c2ccccc12)NC(=O)[C@@H](CC(=O)NO)CC(C)C [GM6001]
decrease of migration [1]: 21.4% | reduction of rate of in vitro cell growth ([2]; after 4 days): 30.7% | reduction of rate of in vitro cell growth ([2]; after 7 days): 37.4% | MMP-2 activity normalized to cell number [3]: not statistically different

NC(=O)C(Cc1ccc(O)cc1)NC(=O)C(Cc1ccccc1)NC(=O)CS (stereo not drawn) [N-mercaptoacetyl-Phe-Tyr-amide]
Ki [4]: 41 nM

Gentamicin [Gentamycin]
growth rate ([5]; low concentrations of gentamycin, after 26 h in NB-medium): enhance growth | growth rate ([5]; very low concentrations of gentamycin): no effect | MIC [6]: 8 µg/mL

B1: IMPIα: insect metalloproteinase inhibitor from G. mellonella, 69 amino acids; M4-metalloprotease inhibitor (protein, listed as Galleria mellonella)
chain: IVLICNGGHEYYECGGACDNVCADLHIQNKTNCPIINIRCNDKCYCEDGYARDVNGKCIPIKDCPKIRS
IC60 [7]: 81.66 nM | planctonic biofilm ([8]; IMPI 60 μM, no antibiotic): no plantonic biofilm can be observed | pyoveridine secretion ([8]; IMPI 60 μM, no antibiotic, NB-Medium No. 5): secreted less | pyoveridine expression ([8]; IMPIα 73 μM with Gentamycin down to 0.125 μg/ml, NB-Medium No. 5): not expressed | IC60 [9]: 0.86 nM | inhibition [10]: negligible inhibition | inhibition [11]: negligible inhibition | IC60 [12]: 0.62 nM | biofilm formation [13]: biofilm formation is prohibited | synthesis of pyoverdine [14]: inhibited synergistically
